Measurements as given in patent US20250376533A1 (FUTUREGEN BIOPHARMACEUTICAL BEIJING, published 2025).
One block for each binder: values may come before it.

Legend:
[1] = target: T1, human PD-L1 antigen (ACROBiosystems) (human, UniProt Q9NZQ7 19-238); test: BLI (Gator), antibody captured on PA probe, human PD-L1 in solution
T1 construct: Bought antigen coated on ELISA plates
Experimental: The interaction between monoclonal antibodies and antigens was detected using Gator, a label-free biomolecular interaction analyzer based on the principle of biolayer interferometry (BLI). The specific method is as follows: monoclonal antibody was diluted to 50 nM and added to a probe plate using a PA probe, allowing the monoclonal antibody to be captured by the PA probe. Human PD-L1, an antigen serially diluted starting from 200 nM, was then added for interaction with the […] captured by the PA probe. The interaction was analyzed by detecting the signal change of the reflected interference spectrum on the surface of the probe, and the binding kinetic constants of the antibody were finally calculated.

[2] = target: T1, human PD-L1 antigen (ACROBiosystems); test: ELISA, coated antigen
Experimental: (§1) The binding ability of monoclonal antibody to human PD-L1, as well as the species specificity, was detected using an enzyme-linked immunosorbent assay (ELISA). The specific method is as follows: human PD-L1, cynomolgus PD-L1, rat PD-L1, and mouse PD-L1 antigens (all purchased from ACROBiosystems) were coated with 1 μg/mL carbonate buffer (pH=9.6) in an ELISA plate at 100 μL per well, followed by incubation at 4° C. overnight. The wells were washed 5 times with PBST. 300 μL/well of PBST containing 1% BSA was added to block the wells, and the plate was incubated at room temperature for 1 hour. The wells were washed 5 times with PBST. […] The wells were washed 5 times with PBST. […] The wells were washed 5 times with PBST. Colorimetric substrate TMB was added at 100 μL per well and allowed to develop color at room temperature for 10 minutes, followed by the addition of 1 M sulfuric acid to terminate the reaction. The OD_{450 nm} was read on a microplate reader to analyze the results, and the EC₅₀ was calculated using a 4-parameter fit binding curve.
(§2) These monoclonal antibodies are not able to bind to rat PD-L1 or mouse PD-L1.

[3] = target: T2, cynomolgus PD-L1 antigen (ACROBiosystems) (cynomolgus, UniProt G7PSE7 19-238); test: ELISA, coated antigen
T2 construct: Bought antigen coated on ELISA plates; construct not described
Experimental: as §1, §2

[4] = target: T3, rat PD-L1 antigen (ACROBiosystems) (rat, UniProt D4AE25 19-239); test: ELISA, coated antigen
T3 construct: Bought antigen coated on ELISA plates; construct not described
Experimental: as §1, §2

[5] = target: T4, mouse PD-L1 antigen (ACROBiosystems) (mouse, UniProt Q9EP73 19-239); test: ELISA, coated antigen
T4 construct: Bought antigen coated on ELISA plates; construct not described
Experimental: as §1, §2

T1 sequence (Q9NZQ7 19-238 limits assumed): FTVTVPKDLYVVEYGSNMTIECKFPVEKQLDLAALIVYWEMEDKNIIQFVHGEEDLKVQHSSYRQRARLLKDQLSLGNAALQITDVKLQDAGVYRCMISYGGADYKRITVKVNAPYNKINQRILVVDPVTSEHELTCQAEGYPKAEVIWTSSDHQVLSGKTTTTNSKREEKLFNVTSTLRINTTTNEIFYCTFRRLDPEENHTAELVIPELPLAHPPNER
T3 sequence (D4AE25 entry or part of it limits assumed): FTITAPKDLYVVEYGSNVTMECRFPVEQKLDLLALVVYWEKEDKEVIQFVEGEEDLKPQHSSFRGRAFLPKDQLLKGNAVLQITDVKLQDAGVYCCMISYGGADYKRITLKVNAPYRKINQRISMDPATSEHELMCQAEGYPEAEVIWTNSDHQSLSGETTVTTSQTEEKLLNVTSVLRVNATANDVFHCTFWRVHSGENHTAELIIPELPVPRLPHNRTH
T4 sequence (Q9EP73 19-239 limits assumed): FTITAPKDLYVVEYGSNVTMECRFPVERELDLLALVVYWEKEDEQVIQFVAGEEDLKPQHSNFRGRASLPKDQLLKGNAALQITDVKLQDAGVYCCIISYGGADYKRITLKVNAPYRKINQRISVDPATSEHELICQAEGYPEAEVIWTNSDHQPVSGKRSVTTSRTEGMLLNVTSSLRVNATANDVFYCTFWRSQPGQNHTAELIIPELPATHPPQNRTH
T2 sequence (G7PSE7 entry or part of it): as the sequence (Q9NZQ7 19-238 limits assumed) above, with A33T, A34S, S62N, R68Q, Q82R, F173L, T185A, T192I, H215L counted along it

B1: anti-PD-L1 monoclonal antibody 1102 (antibody, human IgG1, V domains shown)
VH: EVQLVESGGGLVQPGGSLRLSCAASGFTFDYYTQCWFRQAPGKEREWVSCISSSEGSTYYADSVKGRFTISRDNAKNTVYLQMNSLRAEDTAVYYCAARKGGPLTIENFFDYWGQGTQVTVSS
Kd [1]: 4.41 nM | koff [1]: 0.00451 s⁻¹ | kon [1]: 1.02e+06 M⁻¹ s⁻¹ | EC50 [2]: 0.013 nM | EC50 [3]: 0.013 nM | binding result [4]: no binding | binding result [5]: no binding

B2: anti-PD-L1 monoclonal antibody 1029 (antibody, human IgG1, V domains shown)
VH: EVQLVESGGGLVQPGGSLRLSCAASGFTLDYYSKCWFRQAPGKEREWVSCIGSSDGSTYYADSVKGRFTISRDNAKNTVYLQMNSLRAEDTAVYYCAARNGGPLTIENFFDYWGQGTQVTVSS
Kd [1]: 4.37 nM | koff [1]: 0.00422 s⁻¹ | kon [1]: 967000 M⁻¹ s⁻¹ | EC50 [2]: 0.012 nM | EC50 [3]: 0.013 nM | binding result [4]: no binding | binding result [5]: no binding

Further lines, results first:

Kd [1]: 8.3 nM | koff [1]: 0.00913 s⁻¹ | kon [1]: 1.1e+06 M⁻¹ s⁻¹ | EC50 [2]: 0.02 nM | EC50 [3]: 0.018 nM | binding result [4]: no binding | binding result [5]: no binding
B3: anti-PD-L1 monoclonal antibody 1031 (antibody, human IgG1, V domains shown)
VH: EVQLVESGGGLVQPGGSLRLSCAASGFTFEYYTKCWFRQAPGKEREWVSCISTSEGSTYYADSVKGRFTISRDNAKNTVYLQMNSLRAEDTAVYYCAARKGGPLTIENFFDYWGQGTQVTVSS

Kd [1]: 4.38 nM | koff [1]: 0.00293 s⁻¹ | kon [1]: 670000 M⁻¹ s⁻¹ | EC50 [2]: 0.014 nM | EC50 [3]: 0.018 nM | binding result [4]: no binding | binding result [5]: no binding
B4: anti-PD-L1 monoclonal antibody 1541 (antibody, human IgG1, V domains shown)
VH: EVQLVESGGGLVQPGGSLRLSCAASGFTFDYYTQCWFRQAPGKEREWVSCISSSEGSTYYADSVKGRFTISRDNSKNTVYLQMNSLKTEDTAVYYCAARKGGPLTIENFFDYWGQGTQVTVSS
